# Target: TRAIL-R
substance,measurement,value
TNF-related apoptosis-inducing ligand (TRAIL) (from UniProt P50591 1-281),inhibition of specific lysis of Nalm6 cells by pDC-activated NK cells (5:1 E:T ratio) with a blocking anti-TRAIL antibody,50%
same,inhibition of specific lysis of REH cells by pDC-activated NK cells (5:1 E:T ratio) with a blocking anti-TRAIL antibody,66%

# From publication PMC4745738
